Test results taken from PMC11151058, “The Transpeptidase Sortase A Binds Nucleic Acids and Mediates Mammalian Cell Labeling”.

Columns and labels:
mgSrtA-H120A = mgSrtA-H120A (Staphylococcus aureus, UniProt Q2FV99 60-206, P94R;H120A;D124G;D160N;D165A;Y187L;E189R;K190E;K196T;F200L); assay: band shift, SDS western blot; Western-blot shift: 10 uM protein, 20 uM oligo, HBSS, 37 C, 30 min (Fig 3D 10 min); EMSA: HBSS, 37 C, 30 min, 6% PAGE; MST: 20 mM HEPES, 300 mM NaCl, pH 6.8, 0.1% Tween 20, 25 C; details: protein: recombinant; tags: N-terminal 6xHis (pET-28a); label: 5'Biotin, 3'FITC
mgSrtA-L200F = mgSrtA-L200F (Staphylococcus aureus, UniProt Q2FV99 60-206, P94R;D124G;D160N;D165A;Y187L;E189R;K190E;K196T); assay: as above; details: protein: recombinant; tags: N-terminal 6xHis (pET-28a); label: 5'Biotin, 3'FITC
WTSrtA = WTSrtA (Staphylococcus aureus, UniProt Q2FV99 60-206); assay: as above; details: protein: recombinant; tags: N-terminal 6xHis (pET-28a); label: 5'Biotin, 3'FITC
mgSrtA-C184A = mgSrtA-C184A (Staphylococcus aureus, UniProt Q2FV99 60-206, P94R;D124G;D160N;D165A;C184A;Y187L;E189R;K190E;K196T;F200L); assay: as above; details: protein: recombinant; tags: N-terminal 6xHis (pET-28a); label: 5'Biotin, 3'FITC
mgSrtA-mono = mgSrtA-mono (Staphylococcus aureus, UniProt Q2FV99 60-206, P94R;D124G;N132A;K137A;Y143A;D160N;D165A;Y187L;E189R;K190E;K196T;F200L); assay: as above; details: protein: recombinant; tags: N-terminal 6xHis (pET-28a); label: 5'Biotin, 3'FITC
mgSrtA-R197A = mgSrtA-R197A (Staphylococcus aureus, UniProt Q2FV99 60-206, P94R;D124G;D160N;D165A;Y187L;E189R;K190E;K196T;R197A;F200L); assay: as above; details: protein: recombinant; tags: N-terminal 6xHis (pET-28a); label: 5'Biotin, 3'FITC
mgSrtA [1] = target: T1, mgSrtA (Staphylococcus aureus, UniProt Q2FV99 60-206, P94R;D124G;D160N;D165A;Y187L;E189R;K190E;K196T;F200L); assay: as above; details: protein: recombinant, tags: N-terminal 6xHis (pET-28a), label: 5'Biotin
5M SrtA = 5M SrtA (Staphylococcus aureus, UniProt Q2FV99 60-206, P94R;D160N;D165A;K190E;K196T); assay: as above; details: protein: recombinant; tags: N-terminal 6xHis (pET-28a); label: 5'Biotin, 3'FITC
mgSrtA-triple = mgSrtA-triple (Staphylococcus aureus, UniProt Q2FV99 60-206, P94R;H120A;D124G;D160N;D165A;C184A;Y187L;E189R;K190E;K196T;R197A;F200L); assay: as above; details: protein: recombinant; tags: N-terminal 6xHis (pET-28a); label: 5'Biotin, 3'FITC
mgSrtA [2] = target: T1, mgSrtA; assay: band shift, SDS western blot; 50 uM oligo; Western-blot shift: 10 uM protein, 20 uM oligo, HBSS, 37 C, 30 min (Fig 3D 10 min); EMSA: HBSS, 37 C, 30 min, 6% PAGE; MST: 20 mM HEPES, 300 mM NaCl, pH 6.8, 0.1% Tween 20, 25 C; details: protein: recombinant; tags: N-terminal 6xHis (pET-28a); label: 5'Biotin
mgSrtA [3] = target: T1, mgSrtA; assay: band shift, SDS western blot; 20 uM oligo; Western-blot shift: 10 uM protein, 20 uM oligo, HBSS, 37 C, 30 min (Fig 3D 10 min); EMSA: HBSS, 37 C, 30 min, 6% PAGE; MST: 20 mM HEPES, 300 mM NaCl, pH 6.8, 0.1% Tween 20, 25 C; details: protein: recombinant; tags: N-terminal 6xHis (pET-28a); label: 5'Biotin
mgSrtA [4] = target: T1, mgSrtA; assay: band shift, SDS western blot; 1 uM oligo; Western-blot shift: 10 uM protein, 20 uM oligo, HBSS, 37 C, 30 min (Fig 3D 10 min); EMSA: HBSS, 37 C, 30 min, 6% PAGE; MST: 20 mM HEPES, 300 mM NaCl, pH 6.8, 0.1% Tween 20, 25 C; details: protein: recombinant; tags: N-terminal 6xHis (pET-28a); label: 5'Biotin

Binder: GGGG (ssDNA) [BF 4G]
- binding result (mgSrtA-H120A): binds
- binding result (mgSrtA-L200F): binds
- binding result (WTSrtA): binds
- binding result (mgSrtA-C184A): binds
- binding result (mgSrtA-mono): binds
- binding result (mgSrtA-R197A): binds
- binding result (mgSrtA [1]; 3'FITC): binds
- binding result (5M SrtA): binds
- binding result (mgSrtA-triple): binds

Binder: GGGGGG (ssDNA) [6G]
- binding result (mgSrtA [2]): binds

Binder: GGGGGGGG (ssDNA) [8G]
- binding result (mgSrtA [3]): binds

Binder: GGGGCGGGGTGGGGC (ssDNA) [15G]
- binding result (mgSrtA [4]): binds

Binder: GGGGCGGGGTGGGGCGGGGT (ssDNA) [20G]
- binding result (mgSrtA [4]): binds

Binder: GGGG (ssDNA) [4G (Fig S17)]
- binding result (mgSrtA [1]): binds
